# From the supplement of paper PMC12764529
# ± gives the half width of the 95% confidence interval.
# Assay: folding stability dG unfold (combined trypsin and chymotrypsin); higher = more stable
# Method in brief: (§1)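 Sequencing followed digestion of designed mini-proteins with trypsin and chymotrypsin, each at 11 concentrations in threefold dilutions together with a no-protease condition. The mini-proteins were under 80 residues, had no cysteine, sat in a PA-tagged cDNA display construct, and were kept only if AlphaFold2 dimer inter-PAE was above 15. From the counts, Bayesian fitting gave K50, and unfolding free energy was derived against a sequence-predicted unfolded-state K50 and a shared folded-state K50, per protease or combined.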
row,Sequence,folding stability dG unfold
1,SAGGMVIVIKTPGGASELEIGDLTITTNPDTGLRVAEATPEQIEELLKADALKDIEEIEVLPIEELLSAGGS [r8_493_TrMRF],0.243 ± 0.11 kcal/mol
2,SAMLPSIIIAKAKEAIEKSGKPVPVVIKIPVYKKENGPPVSLEKAKEIFEKLKEAFPDVPIIIELEEPESAG [r14_636_TrMRF],0.766 ± 0.048 kcal/mol
3,GSLVTVFPFPENGKTVEVVVPESVGTPLSEAEIRALLLEAHPDVPAAALPAEEAAEILQATPGVEAARVVAS [r1_463_JUSTAS],-0.302 ± 0.35 kcal/mol
4,SAGGSAGGSAGKEKTITVLLEVDGYLVVAEVKLNEDGSLEITSVKVIKLPKPKPSPEALKSAGGSAGGSAGG [r11_843_TrROS_Hall],0.907 ± 0.21 kcal/mol
5,SAGGSLSEIIEKAKELAKKKYPNKGVTVPVEIKYKDPVKKKWIKVKIEITFDKNGNIIKITIKEIKLESAGG [r13_770_JUSTAS],3.91 ± 0.41 kcal/mol
6,SAGGSAGGSAEWKPITYWVPPGQSIKEIADDLMDKNPRITDAEMEYDPDGYMKVTLTVRLDSAGGSAGGSAG [r3_371_TrROS],0.552 ± 0.086 kcal/mol
7,SAGGSPPPLRITYKIRMGGQPFEWTIPIPADDLPPGQQIEIDIRIKKMDPENNRMRMEIDDVEVTPSAGGSA [r2_479_TrROS],0.76 ± 0.19 kcal/mol
8,SAGVKPTPSGKNILEIDPETGKIRFVNNNGELFELPTGNDSLDAAIKEAVEKLGYPPDTPFNIDEIKIGSAG [r5_923_TrMRF],1.54 ± 0.19 kcal/mol
9,SAWNFKIEEVEVDPNDGRIWFTVKIPPNNPELAEEIAEELQDYGIKVKLINPDLPPGQTIIVQIEVKDPSAG [r14_354_TrROS],1.83 ± 0.18 kcal/mol
10,SAGGGMTFNFTAPDGTPYEDVTTTPLPDGSTLVTVTQEDPKNPGVVTVTLIRLPSGADALEVTSGPVVSAGG [r13_370_JUSTAS],0.944 ± 0.095 kcal/mol
11,SAGGSAGGSAGIITIWFPPDEEFRDFIENLPGPIEDVNIEPRNPGWIKVTLTMRMPPDQVSAGGSAGGSAGG [r11_143_TrROS],0.871 ± 0.17 kcal/mol
12,SAGGSDEHEYKGTGRDPDNGQTREETYRVEPVVPPIPISISVSLNLDIDPNGNLNWDFNISIGIGISAGGSA [r2_326_TrROS],3.33 ± 0.37 kcal/mol
13,SAGPWNIMVYDNGEPLEMIEIKGDEITIPLPPGPVRIAIFNPDDNGFVEEEVTPEDGTIEMKIPKGAKISAG [r5_469_TrROS],-0.113 ± 0.38 kcal/mol
14,SKKVVFVTYPKTSVKEIVEKLKENPNTEFVFLMPSSVGPEFYEKLKKALKEANIPKEQKVLFLPVEENSLSA [r9_670_TrMRF],3.04 ± 0.077 kcal/mol
15,SAGMMYKITIKTKNGEKIEIEIPAEELENLTEEQLKELAKELAKKLEEEGIEVEKVEVKIEPVKPEELSAGG [r19_334_TrROS_Hall],3.04 ± 0.13 kcal/mol
16,SAGGPKWYYITIKIPDDPKKAERLVDRLQDLFGEDVRINVNPGNNHVTVWIPNDLRPLLKDHGLEITPSAGG [r13_156_TrROS],2.93 ± 0.047 kcal/mol
17,SAGGIEIPVNPHPSEDGQPYVMFTLEIEPKDDNGKKQERPIPFMFDSPDDAEEFASEAAPDGYKIRISAGGS [r16_652_TrROS],-0.0602 ± 0.15 kcal/mol
18,SAMEKGKALKYREVIPLPDGPVELEIIYFPETGEYVAIIRNPSTGEKVEIPFKFDSLEDAVKAAKDFVASAG [r14_65_TrMRF],3.29 ± 0.076 kcal/mol
19,SAGGGISIVSGDPEITPEKAEAIAAELAAILEEKGFTPKDAELARLPGGRILVTITVDDGKPIVFSLSAGGS [r8_485_TrMRF],1.49 ± 0.028 kcal/mol
20,SAGGSDRVLVPAGPSDYDVLVVVTPGPGDLVGVDALVIHPDGTPLAVRGVLDPTTGGISPVAVDPLSAGGSA [r2_402_TrMRF],0.258 ± 0.038 kcal/mol
21,SAGGSKIKIVEVKKNEDGTVTVKVEVEINGKKYTIEARFETLEDGKKVMTLRITNENGEEIEIVLPSAGGSA [r2_376_TrROS_Hall],5.12 ± 0.32 kcal/mol

row,Sequence,folding stability dG unfold
1,SYTLEFEDITLKPVEPGTKISIPGYVKYDGVLYKVTEVTYDPEKGTITITIKVEPEGKPKTLTITIPIPPPS [r1_47_JUSTAS],2.06 ± 0.19 kcal/mol
2,SAGGSAKVIRVKSLEEALKLAEEAKKAGLEVEIKLLPDGSVLITVKPKPKPKVKKVEKKVKLPEGKSAGGSA [r15_761_TrROS_Hall],1.36 ± 0.15 kcal/mol
3,SAGGSAGGSGIPVEPIPVRNPKGEIVEVIRFPEDFALVVFPSGERALLRGPELSLRDVVFFPLSAGGSAGGS [r12_491_TrMRF],0.533 ± 0.055 kcal/mol
4,SAVITYPIPDDKPTLILEPLPGSESLLILSTKREKIPNGTYKVEALVVRYEPALGASVEEKVELIEPIGSAG [r14_591_JUSTAS],-0.239 ± 0.22 kcal/mol
5,SAGGSAGGSAGGMRKYLVTLKPPNGPVTRYILPSEEEIKEFVAPLNAEYEVTPLSEDVPPSAGGSAGGSAGG [r7_456_JUSTAS],0.515 ± 0.088 kcal/mol
6,SAGGSAGGMLRVRVETTLPGSGETLDLELEFPSEEEARRAIEALVPPEERAEVRVEFLPPGVPESAGGSAGG [r6_657_JUSTAS],1.06 ± 0.1 kcal/mol
7,SAGGSAGGSAGGKIKLTVTVDADGNATVTLEIEVESPEDKPFTIRLTLTFPLKDGESLTSAGGSAGGSAGGS [r10_763_TrMRF],3.82 ± 0.17 kcal/mol
8,SAGMKSLTITETVTDPNSDNPITIITDPVTGKVIKLYPDGTATVYDPNNPNKSTTYKMSPEEVIEKMSSSAG [r5_491_JUSTAS],0.673 ± 0.061 kcal/mol
9,SAGGSSIKIEKIEKHENGVKIDISVPDLSNEEEINAVKKKLAEELGLKEEDVEVSLKSENIPLPPSIGSAGG [r13_430_JUSTAS],1.75 ± 0.22 kcal/mol
10,SAGGSAGGSAGGFVLTFTLPDSVVRITLPEDANPEEIKQRLLEEHGVPIELRLIPPSNPLSAGGSAGGSAGG [r11_805_JUSTAS],0.782 ± 0.2 kcal/mol
11,SAGGSAGGSKELLKNLPPGAKITVEKKEDGTVRITITNKDGSEKEIEIKVNGKIIKLTIKKKPSAGGSAGGS [r20_50_TrROS_Hall],1.04 ± 0.32 kcal/mol
12,SAGGAGDQPVVIVATGSDGSPRVFPFKTKEPFKVTVNFPDEKRVFTVPADEPFVFDAPDGDILLDASSAGGS [r16_456_TrMRF],0.394 ± 0.095 kcal/mol
13,SAGGSAGGNVLIPKSKLEEFLKNIPFEVLVLNPENPRLEIARVEADDIFVDDDYALILLTVSNDSAGGSAGG [r6_753_TrMRF],0.742 ± 0.12 kcal/mol
14,SAGGSAGGKPKPVLRTFEVRDPATGELYKVELVVLDDGSVRALVTRRDGRKREFTFDAPASLILSAGGSAGG [r6_588_TrMRF],1.88 ± 0.047 kcal/mol
15,SAGGSAGGSAGGMIIIIPTPKGTVALVIDENSDKPTLIEASPDEIPDLIEKGAKEVIILPSAGGSAGGSAGG [r7_266_TrMRF],0.932 ± 0.13 kcal/mol
16,SAGGSAGGSNTITVFMKVDDPEDALDEISEEIRDLFPPGIEVEIQPEQNEDKRGWVQVTIEFKSAGGSAGGS [r20_122_TrROS],1.02 ± 0.2 kcal/mol
17,SAGGSAKIVIKPDGTIEVEVNGKTFTFPPGAEIEIEEKDGELVLRIRLFNKDGKEVEEFEVTVRIESAGGSA [r15_424_TrROS_Hall],5.48 ± 0.18 kcal/mol
18,SAGNIRIDVHVPPDGYYMIKIRFPGNGREANIMLPPNDPDKFKELAEEIAENLFEEGFPIEVDIEPIPPSAG [r5_815_TrROS],1.89 ± 0.31 kcal/mol
19,SMVFTLPGGIEIKVEPEEDSYRFVIELPSGERLEVPVPPENLEEFIRELIRKALEIANPNITEEEIEKLASA [r9_634_TrMRF],3.59 ± 0.29 kcal/mol
20,SAGGMLVVLLDDRPEVLPVNPERFETPEEAVEAVAREVAERFPDAGERRVVVVNEDGEEVATVELTPESAGG [r13_257_TrMRF],0.459 ± 0.052 kcal/mol
21,SAGGSAGGSAGGGDFEKVKVRFRYVNPDGGPERDIEIEVEARKEDIPRLLKELKDAGLIESAGGSAGGSAGG [r7_618_TrMRF],1.23 ± 0.099 kcal/mol

# Assay: folding stability dG unfold from trypsin proteolysis; higher = more stable
# Method in brief: as §1
row,Sequence,folding stability dG unfold
1,SAGGMVIVIKTPGGASELEIGDLTITTNPDTGLRVAEATPEQIEELLKADALKDIEEIEVLPIEELLSAGGS [r8_493_TrMRF],0.406 ± 0.047 kcal/mol
2,SAMLPSIIIAKAKEAIEKSGKPVPVVIKIPVYKKENGPPVSLEKAKEIFEKLKEAFPDVPIIIELEEPESAG [r14_636_TrMRF],0.875 ± 0.011 kcal/mol
3,GSLVTVFPFPENGKTVEVVVPESVGTPLSEAEIRALLLEAHPDVPAAALPAEEAAEILQATPGVEAARVVAS [r1_463_JUSTAS],-0.877 ± 0.7 kcal/mol
4,SAGGSAGGSAGKEKTITVLLEVDGYLVVAEVKLNEDGSLEITSVKVIKLPKPKPSPEALKSAGGSAGGSAGG [r11_843_TrROS_Hall],1.07 ± 0.048 kcal/mol
5,SAGGSLSEIIEKAKELAKKKYPNKGVTVPVEIKYKDPVKKKWIKVKIEITFDKNGNIIKITIKEIKLESAGG [r13_770_JUSTAS],3.48 ± 0.27 kcal/mol
6,SAGGSAGGSAEWKPITYWVPPGQSIKEIADDLMDKNPRITDAEMEYDPDGYMKVTLTVRLDSAGGSAGGSAG [r3_371_TrROS],0.493 ± 0.056 kcal/mol
7,SAGGSPPPLRITYKIRMGGQPFEWTIPIPADDLPPGQQIEIDIRIKKMDPENNRMRMEIDDVEVTPSAGGSA [r2_479_TrROS],-0.209 ± 0.32 kcal/mol
8,SAGVKPTPSGKNILEIDPETGKIRFVNNNGELFELPTGNDSLDAAIKEAVEKLGYPPDTPFNIDEIKIGSAG [r5_923_TrMRF],1.46 ± 0.044 kcal/mol
9,SAWNFKIEEVEVDPNDGRIWFTVKIPPNNPELAEEIAEELQDYGIKVKLINPDLPPGQTIIVQIEVKDPSAG [r14_354_TrROS],1.3 ± 0.096 kcal/mol
10,SAGGGMTFNFTAPDGTPYEDVTTTPLPDGSTLVTVTQEDPKNPGVVTVTLIRLPSGADALEVTSGPVVSAGG [r13_370_JUSTAS],0.972 ± 0.07 kcal/mol
11,SAGGSAGGSAGIITIWFPPDEEFRDFIENLPGPIEDVNIEPRNPGWIKVTLTMRMPPDQVSAGGSAGGSAGG [r11_143_TrROS],0.703 ± 0.07 kcal/mol
12,SAGGSDEHEYKGTGRDPDNGQTREETYRVEPVVPPIPISISVSLNLDIDPNGNLNWDFNISIGIGISAGGSA [r2_326_TrROS],2.78 ± 0.2 kcal/mol
13,SAGPWNIMVYDNGEPLEMIEIKGDEITIPLPPGPVRIAIFNPDDNGFVEEEVTPEDGTIEMKIPKGAKISAG [r5_469_TrROS],-0.792 ± 0.44 kcal/mol
14,SKKVVFVTYPKTSVKEIVEKLKENPNTEFVFLMPSSVGPEFYEKLKKALKEANIPKEQKVLFLPVEENSLSA [r9_670_TrMRF],2.92 ± 0.13 kcal/mol
15,SAGMMYKITIKTKNGEKIEIEIPAEELENLTEEQLKELAKELAKKLEEEGIEVEKVEVKIEPVKPEELSAGG [r19_334_TrROS_Hall],3.3 ± 0.23 kcal/mol
16,SAGGPKWYYITIKIPDDPKKAERLVDRLQDLFGEDVRINVNPGNNHVTVWIPNDLRPLLKDHGLEITPSAGG [r13_156_TrROS],2.94 ± 0.086 kcal/mol
17,SAGGIEIPVNPHPSEDGQPYVMFTLEIEPKDDNGKKQERPIPFMFDSPDDAEEFASEAAPDGYKIRISAGGS [r16_652_TrROS],-0.86 ± 0.48 kcal/mol
18,SAMEKGKALKYREVIPLPDGPVELEIIYFPETGEYVAIIRNPSTGEKVEIPFKFDSLEDAVKAAKDFVASAG [r14_65_TrMRF],2.06 ± 0.11 kcal/mol
19,SAGGGISIVSGDPEITPEKAEAIAAELAAILEEKGFTPKDAELARLPGGRILVTITVDDGKPIVFSLSAGGS [r8_485_TrMRF],1.77 ± 0.041 kcal/mol
20,SAGGSDRVLVPAGPSDYDVLVVVTPGPGDLVGVDALVIHPDGTPLAVRGVLDPTTGGISPVAVDPLSAGGSA [r2_402_TrMRF],0.28 ± 0.024 kcal/mol
21,SAGGSKIKIVEVKKNEDGTVTVKVEVEINGKKYTIEARFETLEDGKKVMTLRITNENGEEIEIVLPSAGGSA [r2_376_TrROS_Hall],3.45 ± 0.38 kcal/mol
